The values that follow come from paper PMC9643530.

“And” between values parts separate entries of the source, which are not always exact repeats. Identical values can stand only once. Like-named read-outs stand apart in the source and are kept apart here.

The target of assay [1] is recombinant secreted NS1 (sNS1) of DENV2 clinical strain PVP94/07 with C-terminal His6-tag (dengue virus 2 (clinical strain PVP94/07)). Nature of the assay: cryo-EM structure; recombinant sNS1 alone, 0.25 mg/mL; 2D and 3D classification (Relion, CryoSPARC); also imaged with 0.05% DDM.
Assay [2] has the same target. Nature of the assay: cryo-EM structure; recombinant sNS1 complexed with Fab 5E3, molar ratio 1:1.2, final sNS1 0.25 mg/mL.
Assay [3] has the same target. Nature of the assay: cross-linking.
The target is the same in assay [4]. Put plainly: AUC; sedimentation velocity, 72,446 x g, 20 °C, 1 mg/ml protein in NTE buffer, SEDFIT continuous c(s) distribution.
Assay [5] has as its target sNS1 from the supernatant of DENV2 PVP94/07 infected cells (dengue virus 2 (clinical strain PVP94/07)). Put plainly: cross-linking.
For assay [6] the target is unchanged. Put plainly: cross-linking. The source holds these as a separate data set.

Turning to “recombinant secreted NS1 (sNS1) of DENV2 clinical strain PVP94/07 with C-terminal His6-tag (natural protein)”, the stoichiometry N (as a rule, the number of molecules, sites or subunits per partner or assembly) was 6 and 4 in assay [1]; 2 and 4 in assay [2]; 6 and 4 and 2 in assay [3]; 4 and 6 in assay [4].

Regarding “sNS1 from the supernatant of DENV2 PVP94/07 infected cells (natural protein)”, the stoichiometry N in assay [5] was 4 and 2; in assay [6] it was 6.
